Results taken from patent US20180209983A1 (SUBDOMAIN, published 2018).

What was measured:
[1] = molecular target: T1, purified recombinant DR5-Fc protein (UniProt O14763-2 56-182, limits assumed); assay: phage ELISA; signal on target-Fc over non-specific control (e.g. IgG1-Fc); average where several clones
T1 construct: also called TRAIL-R2; not shown: Fc portion
Procedure: (§1) Selections were also performed using F1, F2, F3, C1 & C2 trinucleotide phosphoramidite libraries. In most cases, libraries were pooled prior to use in selection. By combining equal volumes of the individual libraries, Pool F (libraries F1, F2 and F3) and Pool C (libraries C1 and C2) were generated. These libraries were used in selections for DBDpp binders to 4-1BB/CD137 as well as a larger panel of purified recombinant “target”-Fc proteins, including CD47, CTLA4, DR5, KIR, LAG3, OX40, PD1, PD-L1 and TIM3. (Many of these targets are considered immuno-regulatory factors (Pardoll et al., Nat. Rev. Cancer 12:252-264 (2012)). After incubation of the target with the pools of DBDpp phage libraries, bound phage-target complexes were captured and separated from unbound phage with protein A beads (target proteins were Fc fusions). After three rounds of selection, rescued phage clones were screened by ELISA for binding to the selected target.
(§2) For each target, approximately 90 DBDpp phage clones were screened by ELISA for binding to the target protein and as well as a non-specific control (e.g., IgG1-Fc). […] In some instances, for the ELISA screening plate in which the majority of DBDpp clones were positive, the entire plate was sequenced.

[2] = molecular target: T2, purified recombinant PD1-Fc protein (UniProt Q15116 25-167, limits assumed); assay: as above
T2 construct: not shown: Fc portion
T2 sequence (Q15116 25-167 limits assumed): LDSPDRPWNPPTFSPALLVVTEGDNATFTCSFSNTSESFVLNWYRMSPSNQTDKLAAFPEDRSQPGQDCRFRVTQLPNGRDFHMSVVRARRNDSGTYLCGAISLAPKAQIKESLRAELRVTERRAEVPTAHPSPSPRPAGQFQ
Procedure: as §1, §2

[3] = molecular target: T3, recombinant, biotinylated, Human 4-1BB/TNFRSF9/CD137-Fc (human, UniProt Q07011 24-186, biotinylated (site not stated)); assay: phage ELISA of rescued clones on human CD137-Fc
T3 construct: Selection and screening target of the phage ELISA; also called 4-1BB/CD137; not shown: Fc portion
T3 sequence (Q07011 24-186 limits assumed): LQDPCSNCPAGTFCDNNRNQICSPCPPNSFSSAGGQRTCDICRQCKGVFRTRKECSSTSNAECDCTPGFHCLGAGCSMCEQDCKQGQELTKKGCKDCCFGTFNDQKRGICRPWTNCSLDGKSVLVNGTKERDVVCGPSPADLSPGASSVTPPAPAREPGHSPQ
From the text: The F2NNK DBD library was used in five rounds of selection against recombinant, biotinylated, Human 4-1BB/TNFRSF9/CD137-Fc.

[4] = molecular target: T4, purified recombinant PD-L1-Fc protein (UniProt Q9NZQ7 19-238); assay: phage ELISA; signal on target-Fc over non-specific control (e.g. IgG1-Fc); average where several clones
T4 construct: also called B7-H1; not shown: Fc portion
T4 sequence (Q9NZQ7 19-238 limits assumed): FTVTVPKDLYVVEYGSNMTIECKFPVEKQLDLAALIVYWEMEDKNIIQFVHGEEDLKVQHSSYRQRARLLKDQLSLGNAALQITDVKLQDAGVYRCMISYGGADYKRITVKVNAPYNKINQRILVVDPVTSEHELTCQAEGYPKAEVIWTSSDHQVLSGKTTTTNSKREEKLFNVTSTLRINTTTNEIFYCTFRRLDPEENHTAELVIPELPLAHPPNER
Procedure: as §1, §2

[5] = molecular target: T4, purified recombinant PD-L1-Fc protein; assay: phage ELISA; signal on target-Fc over non-specific control (e.g. IgG1-Fc)
Procedure: as §1, §2

[6] = molecular target: purified recombinant KIR-Fc protein; assay: phage ELISA; signal on target-Fc over non-specific control (e.g. IgG1-Fc); average where several clones
[7] = molecular target: purified recombinant KIR-Fc protein; assay: phage ELISA; signal on target-Fc over non-specific control (e.g. IgG1-Fc)
[8] = molecular target: T5, purified recombinant TIM3-Fc protein (UniProt Q8TDQ0 22-202, limits assumed); assay: phage ELISA; signal on target-Fc over non-specific control (e.g. IgG1-Fc); average where several clones
T5 construct: not shown: Fc portion
Procedure: as §1, §2

T1 sequence (O14763 56-182 limits assumed): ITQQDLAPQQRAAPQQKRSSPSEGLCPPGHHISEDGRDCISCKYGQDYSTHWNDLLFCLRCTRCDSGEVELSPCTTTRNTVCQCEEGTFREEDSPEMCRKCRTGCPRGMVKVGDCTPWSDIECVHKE

B1: DBDpp of SEQ ID NO: 30, phage-displayed (designed binder)
chain: MGSWHYFKDHLAEIKGLLEALGGSEAELAHFEMAIADFEHNLQYYKGKGNPEVEALRKEAAAIRDELQAYRHN
notes: F1 library; rescued M13 phage clone, DBDpp fused to pIII
ELISA ratio [1]: 11.4

B2: DBDpp of SEQ ID NO: 32, phage-displayed (designed binder)
chain: MGSWIYFKEHLAYIKKELEALGGSEAELAHFESAIAVFESTLQYYKGKGNPEVEALRKEAAAIRDELQAYRHN
notes: as for B1
ELISA ratio [1]: 10.7

B3: DBDpp of SEQ ID NO: 31, phage-displayed (designed binder)
chain: MGSWHYFKGHLAEIKNHLEALGGSEAELAHFERAIAAFERSLQWYKGKGNPEVEALRKEAAAIRDELQAYRHN
notes: as for B1
ELISA ratio [1]: 10.8

B4: DBDpp of SEQ ID NO: 34, phage-displayed (designed binder)
chain: MGSWWLFKDHLAEIKTALEALGGSEAELAHFEMAIAAFEKQLQYYKGKGNPEVEALRKEAAAIRDELQAYRHN
notes: as for B1
ELISA ratio [1]: 9.75

B5: DBDpp of SEQ ID NO: 33, phage-displayed (designed binder)
chain: MGSWTYFKEHLAEIKYMLEALGGSEAELAHFEVAIADFEKMLQYYKGKGNPEVEALRKEAAAIRDELQAYRHN
notes: as for B1
ELISA ratio [1]: 10.3

B6: DBDpp of SEQ ID NO: 47, phage-displayed (designed binder)
chain: MGSWVMFKWLLADIKSHLEALGGSEAELAFFEGFIAAFETHLQVYKGKGNPEVEALRKEAAAIRDELQAYRHN
notes: as for B1
ELISA ratio [2]: 8.13

B7: bb10 (DBDpp clone from the F2NNK library), phage-displayed (designed binder)
chain: MGSWAEFKQRLAAIKTRLEALGGSEAELAAFLGEIWAFEMELAAYKGKGNPEVEALGREAAAIRMELQAYRHN
notes: Tested as rescued M13 phage; In the F2NNK library the DBDpp carries an N-terminal FLAG tag and is fused at its C-terminus to M13 pIII (pComb phagemid); also called the 89 clones
fold of ELISA OD over control (IgG Fc) [3]: 5.3 fold

B8: DBDpp of SEQ ID NO: 29, phage-displayed (designed binder)
chain: MGSWFYFKQHLAWIKSYLEALGGSEAELAHFERAIAAFEQHLQMYKGKGNPEVEALRKEAAAIRDELQAYRHN
notes: as for B1
ELISA ratio [1]: 11.8

B9: DBDpp of SEQ ID NO: 40, phage-displayed (designed binder)
chain: MGSWYEFQNRLHAIHERLNALGGSEAELAAFEKEIAAFESELQAYKGKGNPEVELLRDDAAFIRHFLQAYRHN
notes: F3 library; rescued M13 phage clone, DBDpp fused to pIII
ELISA ratio [4]: 6.34

B10: DBDpp of SEQ ID NO: 41, phage-displayed (designed binder)
chain: MGSWFEFQDRLTAINERLSALGGSEAELAAFEKEIAAFESELQAYKGKGNPEVETLRSDAAFIRRFLQAYRHN
notes: as for B9
ELISA ratio [4]: 6.01

B11: DBDpp of SEQ ID NO: 44, phage-displayed (designed binder)
chain: MGSWFEFENRLHAIVHRLGALGGSEAELAAFEKEIAAFESELQAYKGKGNPEVETLRADAAFIRHYLQAYRHN
notes: as for B9
ELISA ratio [4]: 2.76

B12: DBDpp of SEQ ID NO: 61, phage-displayed (designed binder)
chain: MGSWYEFDDRLNAIHDRLQALGGSEAELAAFEKEIAAFESELQAYKGKGNPEVEDLRDDAAFIRRFLQAYRHN
notes: as for B9
ELISA ratio [5]: 12.2

B13: DBDpp of SEQ ID NO: 38, phage-displayed (designed binder)
chain: MGSWTEFQSRLDAIHSRLRALGGSEAELAAFEKEIAAFESELQAYKGKGNPEVELLRDDAAFIRHFLQAYRHN
notes: as for B9
ELISA ratio [4]: 8.68

B14: DBDpp of SEQ ID NO: 42, phage-displayed (designed binder)
chain: MGSWYEFESRLDAIHERLHALGGSEAELAAFEKEIAAFESELQAYKGKGNPEVENLRGDAAFIRHFLQAYRHN
notes: as for B9
ELISA ratio [4]: 4.88

B15: DBDpp of SEQ ID NO: 60, phage-displayed (designed binder)
chain: MGSWYEFTVRLEAIHERLKALGGSEAELAAFEKEIAAFESELQAYKGKGNPEVEILRDDAAFIRRFLQAYRHN
notes: as for B9
ELISA ratio [5]: 17.3

B16: DBDpp of SEQ ID NO: 43, phage-displayed (designed binder)
chain: MGSWYEFNHRLDAISKRLNALGGSEAELAAFEKEIAAFESELQAYKGKGNPEVEELRGDAAFIRHFLQAYRHN
notes: as for B9
ELISA ratio [4]: 2.98

B17: DBDpp of SEQ ID NO: 39, phage-displayed (designed binder)
chain: MGSWQEFDDRLNAIKARLQALGGSEAELAAFEKEIAAFESELQAYKGKGNPEVEDLRDDAAFIRRFLQAYRHN
notes: as for B9
ELISA ratio [4]: 7.41

B18: DBDpp of SEQ ID NO: 35, phage-displayed (designed binder)
chain: MGSWSEFYNRLDAIESRLLALGGSEAELALFEIQIARFEKVLQAYKGKGNPEVEALRGEARAIFAELYAYRHN
ELISA ratio [6]: 8.4

B19: DBDpp of SEQ ID NO: 37, phage-displayed (designed binder)
chain: MGSWLWFKIFLAEIKYFLEALGGSEAELAAFDFEIHAFHVELFAYKGKGNPEVEVLREVAAEIRWDLQAYRHN
ELISA ratio [7]: 4.17

B20: DBDpp of SEQ ID NO: 36, phage-displayed (designed binder)
chain: MGSWYEFYNRLYAIEIRLYALGGSEAELAAFEKEIAAFESELQAYKGKGNPEVERLRVRAAKIRVILQAYRHN
ELISA ratio [6]: 4.24

B21: DBDpp of SEQ ID NO: 48, phage-displayed (designed binder)
chain: MGSWYAFKDYLADIKGWLEALGGSEAELAFFEIFIARFELELQAYKGKGNPEVEALRKEAAAIRDELQAYRHN
notes: as for B1
ELISA ratio [2]: 3.29

B22: DBDpp of SEQ ID NO: 45, phage-displayed (designed binder)
chain: MGSWVVFKVDLATIKYILEALGGSEAELAEFEGEIAGFEYSLQFYKGKGNPEVEALRKEAAAIRDELQAYRHN
notes: F1 library
ELISA ratio [8]: 5.79

B23: DBDpp of SEQ ID NO: 28, phage-displayed (designed binder)
chain: MGSWVYFKEHLAWIKTELEALGGSEAELAHFEHSIADFEMSLQFYKGKGNPEVEALRKEAAAIRDELQAYRHN
notes: F1 library
ELISA ratio [1]: 12.1

B24: DBDpp of SEQ ID NO: 46, phage-displayed (designed binder)
chain: MGSWTIFKEWLAFIKTDLEALGGSEAELAFFEGWIASFEMELQKYKGKGNPEVEALRKEAAAIRDELQAYRHN
notes: as for B1
ELISA ratio [2]: 17.1
